Values quoted from earlier work as cited in patent US12653898B2, “Polyoxyethylene derivatives and conjugates thereof” (NATIONAL UNIVERSITY CORPORATION HOKKAIDO UNIVERSITY, priority 2023, dated 2026).
Where two headings read alike, the source gives them in different places.

Conditions: under physiological conditions

B1: conjugate of bovine pancreas-derived ribonuclease A (RNase A) and compound 7: conjugate of RNase A and compound 7 (1-benzyl-1H-1,2,3-triazole-4-carbaldehyde) of WO 2020/175680 (conjugate, UniProt P61823 27-150, looked up)
Ribonuclease pancreatic: KETAAAKFERQHMDSSTSAASSSNYCNQMMKSRNLTKDRCKPVNTFVHESLADVQAVCSQKNVACKNGQTNCYQSYSTMSITDCRETGSSKYPNCAYKTTQANKHIIVACEGNPYVPVHFDASV
modifications: triazole carbaldehyde compound 7 conjugate
- degradation half-life (FIG. 54 of WO 2020/175680): 12 to 18 h
- degradation half-life (comparison value from WO 2020/175680): 12 to 18 h
